Values quoted from earlier work, collected in paper PMC4623604, “Discovery of Small Molecules that Inhibit the Disordered Protein, p27^Kip1” (Scientific Reports, 2015).

Biological target: cyclin A (Homo sapiens) (UniProt P20248)
Sequence (P20248 whole entry): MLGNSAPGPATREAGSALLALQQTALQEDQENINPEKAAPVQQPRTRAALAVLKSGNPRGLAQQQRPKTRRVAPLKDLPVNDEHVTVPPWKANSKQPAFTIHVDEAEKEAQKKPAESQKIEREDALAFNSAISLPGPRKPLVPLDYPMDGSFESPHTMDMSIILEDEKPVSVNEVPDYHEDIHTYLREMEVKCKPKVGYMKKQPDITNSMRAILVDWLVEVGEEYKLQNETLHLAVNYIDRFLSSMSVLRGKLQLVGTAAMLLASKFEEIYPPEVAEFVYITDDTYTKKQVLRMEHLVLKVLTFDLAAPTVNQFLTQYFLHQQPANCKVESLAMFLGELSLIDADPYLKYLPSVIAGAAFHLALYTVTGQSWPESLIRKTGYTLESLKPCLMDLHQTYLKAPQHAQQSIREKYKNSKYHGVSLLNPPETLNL

Kd: 42 nM
Substance: p27 D1 (from UniProt P46527)
